Test results as given in patent US20250011422A1.

Tests used:
[1] = target: human Siglec-6 on the cell surface (U937, MEC1-002, MEC1-hS6, primary CLL cells) (human) (UniProt O43699); test: quantitative flow cytometry, primary CLL cells (live, CD20+ CD5+), CLL patient 2691
[2] = target: human Siglec-6 on the cell surface (U937, MEC1-002, MEC1-hS6, primary CLL cells) (human) (UniProt O43699); test: quantitative flow cytometry, primary CLL cells (live, CD20+ CD5+), CLL patient 3071
[3] = target: human Siglec-6 on the cell surface (U937, MEC1-002, MEC1-hS6, primary CLL cells) (human) (UniProt O43699); test: quantitative flow cytometry, primary CLL cells (live, CD20+ CD5+), CLL patient 4705
[4] = target: human Siglec-6 on the cell surface (U937, MEC1-002, MEC1-hS6, primary CLL cells) (human) (UniProt O43699); test: quantitative flow cytometry, primary CLL cells (live, CD20+ CD5+), CLL patient 4973
[5] = target: human Siglec-6 on the cell surface (U937, MEC1-002, MEC1-hS6, primary CLL cells) (human) (UniProt O43699); test: quantitative flow cytometry, primary CLL cells (live, CD20+ CD5+), CLL patient 8242
[6] = target: human Siglec-6 on the cell surface (U937, MEC1-002, MEC1-hS6, primary CLL cells) (human) (UniProt O43699); test: quantitative flow cytometry, primary CLL cells (live, CD20+ CD5+), CLL patient 11944
[7] = target: human Siglec-6 on the cell surface (U937, MEC1-002, MEC1-hS6, primary CLL cells) (human) (UniProt O43699); test: quantitative flow cytometry with bead calibration standard, cell line MEC1-002

human Siglec-6 on the cell surface (U937, MEC1-002, MEC1-hS6, primary CLL cells) (human), sequence (O43699 27-453): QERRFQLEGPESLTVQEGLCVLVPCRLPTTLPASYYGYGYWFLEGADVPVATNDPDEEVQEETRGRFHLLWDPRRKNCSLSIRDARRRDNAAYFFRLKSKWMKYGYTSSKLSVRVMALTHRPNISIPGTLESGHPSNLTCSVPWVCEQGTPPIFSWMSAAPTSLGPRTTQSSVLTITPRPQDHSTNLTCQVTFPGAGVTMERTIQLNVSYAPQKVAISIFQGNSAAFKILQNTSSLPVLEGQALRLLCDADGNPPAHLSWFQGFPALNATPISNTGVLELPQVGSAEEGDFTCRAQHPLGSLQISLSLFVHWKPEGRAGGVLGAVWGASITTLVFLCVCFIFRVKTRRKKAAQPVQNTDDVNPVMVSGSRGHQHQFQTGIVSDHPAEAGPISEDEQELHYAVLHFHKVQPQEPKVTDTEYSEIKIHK

Siglec-6 (ABC-isotype) [1]: 6040 ABC
Siglec-6 (ABC-isotype) [2]: 1540 ABC
Siglec-6 (ABC-isotype) [3]: 2430 ABC
Siglec-6 (ABC-isotype) [4]: 3670 ABC
Siglec-6 (ABC-isotype) [5]: 843 ABC
Siglec-6 (ABC-isotype) [6]: 3580 ABC
Siglec-6 (ABC-isotype) [7]: 1450 ABC
Substance: commercial mouse anti-human Siglec-6 mAb clone 767329 (R&D Systems) (antibody)
